# In patent publication US20250361268A1, “NOVEL ANTI-INFLAMMATORY PEPTIDE AND USE THEREOF” (NOVACELL TECHNOLOGY INC., priority 2022, published 2025):
# T1: FPR1 (UniProt P21462 1-350, limits assumed)
# T1 sequence (looked up): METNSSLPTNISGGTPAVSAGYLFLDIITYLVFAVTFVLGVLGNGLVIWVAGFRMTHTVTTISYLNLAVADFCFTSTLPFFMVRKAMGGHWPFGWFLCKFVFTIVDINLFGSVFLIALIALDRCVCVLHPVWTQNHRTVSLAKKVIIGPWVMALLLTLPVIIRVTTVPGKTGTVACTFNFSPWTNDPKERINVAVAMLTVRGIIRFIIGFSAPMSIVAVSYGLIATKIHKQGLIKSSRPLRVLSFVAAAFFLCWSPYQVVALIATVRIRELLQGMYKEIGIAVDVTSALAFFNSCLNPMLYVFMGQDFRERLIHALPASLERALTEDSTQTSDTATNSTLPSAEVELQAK
# Molecular target: T1, FPR1
# Test: cell-based or functional assay
row,Binder,EC50 for [Ca2+] [µM]
1,KMKYKVM (HELM PEPTIDE1{K.M.K.Y.K.V.[dM].[am]}$$$$V2.0; N-terminus assumed; SMILES CSCC[C@H](NC(=O)[C@@H](N)CCCCN)C(=O)N[C@@H](CCCCN)C(=O)N[C@@H](Cc1ccc(O)cc1)C(=O)N[C@@H](CCCCN)C(=O)N[C@H](C(=O)N[C@H](CCSC)C(N)=O)C(C)C) [peptide of SEQ ID NO 9],> 10
2,KMKYKPM (HELM PEPTIDE1{[CCCCCCCC(=O)[*:2]].K.M.K.Y.K.P.[dM].[am]}$$$$V2.0; SMILES CCCCCCCC(=O)N[C@@H](CCCCN)C(=O)N[C@@H](CCSC)C(=O)N[C@@H](CCCCN)C(=O)N[C@@H](Cc1ccc(O)cc1)C(=O)N[C@@H](CCCCN)C(=O)N1CCC[C@H]1C(=O)N[C@H](CCSC)C(N)=O) [peptide of SEQ ID NO 69],> 10
3,HMRYKYM (HELM PEPTIDE1{H.M.R.Y.K.Y.[dM].[am]}$$$$V2.0; N-terminus assumed; SMILES CSCC[C@H](NC(=O)[C@@H](N)Cc1c[nH]cn1)C(=O)N[C@@H](CCCNC(=N)N)C(=O)N[C@@H](Cc1ccc(O)cc1)C(=O)N[C@@H](CCCCN)C(=O)N[C@@H](Cc1ccc(O)cc1)C(=O)N[C@H](CCSC)C(N)=O) [peptide of SEQ ID NO 44],> 10
4,MRYRYM (HELM PEPTIDE1{[ac].M.R.Y.R.Y.[dM].[am]}$$$$V2.0; SMILES CSCC[C@H](NC(C)=O)C(=O)N[C@@H](CCCNC(=N)N)C(=O)N[C@@H](Cc1ccc(O)cc1)C(=O)N[C@@H](CCCNC(=N)N)C(=O)N[C@@H](Cc1ccc(O)cc1)C(=O)N[C@H](CCSC)C(N)=O) [peptide of SEQ ID NO 49],> 10
5,KMKYKVM (HELM PEPTIDE1{[ac].K.M.K.Y.K.V.[dM].[am]}$$$$V2.0; SMILES CSCC[C@H](NC(=O)[C@H](CCCCN)NC(C)=O)C(=O)N[C@@H](CCCCN)C(=O)N[C@@H](Cc1ccc(O)cc1)C(=O)N[C@@H](CCCCN)C(=O)N[C@H](C(=O)N[C@H](CCSC)C(N)=O)C(C)C) [peptide of SEQ ID NO 10],> 10
6,KMKYKPM (HELM PEPTIDE1{K.M.K.Y.K.P.[dM].[am]}$$$$V2.0; N-terminus assumed; SMILES CSCC[C@H](NC(=O)[C@@H](N)CCCCN)C(=O)N[C@@H](CCCCN)C(=O)N[C@@H](Cc1ccc(O)cc1)C(=O)N[C@@H](CCCCN)C(=O)N1CCC[C@H]1C(=O)N[C@H](CCSC)C(N)=O) [peptide of SEQ ID NO 66],> 10
7,WRYWYM (HELM PEPTIDE1{W.R.Y.W.Y.[dM].[am]}$$$$V2.0; N-terminus assumed; SMILES CSCC[C@@H](NC(=O)[C@H](Cc1ccc(O)cc1)NC(=O)[C@H](Cc1c[nH]c2ccccc12)NC(=O)[C@H](Cc1ccc(O)cc1)NC(=O)[C@H](CCCNC(=N)N)NC(=O)[C@@H](N)Cc1c[nH]c2ccccc12)C(N)=O) [peptide of SEQ ID NO 79],> 10
8,RMRYKVM (HELM PEPTIDE1{[CCCCCCCC(=O)[*:2]].R.M.R.Y.K.V.[dM].[am]}$$$$V2.0; SMILES CCCCCCCC(=O)N[C@@H](CCCNC(=N)N)C(=O)N[C@@H](CCSC)C(=O)N[C@@H](CCCNC(=N)N)C(=O)N[C@@H](Cc1ccc(O)cc1)C(=O)N[C@@H](CCCCN)C(=O)N[C@H](C(=O)N[C@H](CCSC)C(N)=O)C(C)C) [peptide of SEQ ID NO 8],> 10
9,MKYKPM (HELM PEPTIDE1{[CCCCCCCC(=O)[*:2]].M.K.Y.K.P.[dM].[am]}$$$$V2.0; SMILES CCCCCCCC(=O)N[C@@H](CCSC)C(=O)N[C@@H](CCCCN)C(=O)N[C@@H](Cc1ccc(O)cc1)C(=O)N[C@@H](CCCCN)C(=O)N1CCC[C@H]1C(=O)N[C@H](CCSC)C(N)=O) [peptide of SEQ ID NO 73],> 10
10,MKYKPM (HELM PEPTIDE1{[CCCC(=O)[*:2]].M.K.Y.K.P.[dM].[am]}$$$$V2.0; SMILES CCCC(=O)N[C@@H](CCSC)C(=O)N[C@@H](CCCCN)C(=O)N[C@@H](Cc1ccc(O)cc1)C(=O)N[C@@H](CCCCN)C(=O)N1CCC[C@H]1C(=O)N[C@H](CCSC)C(N)=O) [peptide of SEQ ID NO 72],> 10
11,RWRYRYM (HELM PEPTIDE1{R.W.R.Y.R.Y.[dM].[am]}$$$$V2.0; N-terminus assumed; SMILES CSCC[C@@H](NC(=O)[C@H](Cc1ccc(O)cc1)NC(=O)[C@H](CCCNC(=N)N)NC(=O)[C@H](Cc1ccc(O)cc1)NC(=O)[C@H](CCCNC(=N)N)NC(=O)[C@H](Cc1c[nH]c2ccccc12)NC(=O)[C@@H](N)CCCNC(=N)N)C(N)=O) [peptide of SEQ ID NO 48],> 10
12,MKYKPM (HELM PEPTIDE1{[ac].M.K.Y.K.P.[dM].[am]}$$$$V2.0; SMILES CSCC[C@H](NC(C)=O)C(=O)N[C@@H](CCCCN)C(=O)N[C@@H](Cc1ccc(O)cc1)C(=O)N[C@@H](CCCCN)C(=O)N1CCC[C@H]1C(=O)N[C@H](CCSC)C(N)=O) [peptide of SEQ ID NO 71],> 10
13,RWRYWYM (HELM PEPTIDE1{R.W.R.Y.W.Y.[dM].[am]}$$$$V2.0; N-terminus assumed; SMILES CSCC[C@@H](NC(=O)[C@H](Cc1ccc(O)cc1)NC(=O)[C@H](Cc1c[nH]c2ccccc12)NC(=O)[C@H](Cc1ccc(O)cc1)NC(=O)[C@H](CCCNC(=N)N)NC(=O)[C@H](Cc1c[nH]c2ccccc12)NC(=O)[C@@H](N)CCCNC(=N)N)C(N)=O) [peptide of SEQ ID NO 77],> 10
14,KMKYKVM (HELM PEPTIDE1{[CCCCCCCC(=O)[*:2]].K.M.K.Y.K.V.[dM].[am]}$$$$V2.0; SMILES CCCCCCCC(=O)N[C@@H](CCCCN)C(=O)N[C@@H](CCSC)C(=O)N[C@@H](CCCCN)C(=O)N[C@@H](Cc1ccc(O)cc1)C(=O)N[C@@H](CCCCN)C(=O)N[C@H](C(=O)N[C@H](CCSC)C(N)=O)C(C)C) [peptide of SEQ ID NO 12],> 10

# Continued, values first:
row,EC50 for [Ca2+] [µM],Binder
1,> 10,IKFWYM (HELM PEPTIDE1{I.K.F.W.Y.[dM].[am]}$$$$V2.0; N-terminus assumed; SMILES CC[C@H](C)[C@H](N)C(=O)N[C@@H](CCCCN)C(=O)N[C@@H](Cc1ccccc1)C(=O)N[C@@H](Cc1c[nH]c2ccccc12)C(=O)N[C@@H](Cc1ccc(O)cc1)C(=O)N[C@H](CCSC)C(N)=O) [peptide of SEQ ID NO 128]
2,> 10,MKYWYM (HELM PEPTIDE1{[ac].M.K.Y.W.Y.[dM].[am]}$$$$V2.0; SMILES CSCC[C@H](NC(C)=O)C(=O)N[C@@H](CCCCN)C(=O)N[C@@H](Cc1ccc(O)cc1)C(=O)N[C@@H](Cc1c[nH]c2ccccc12)C(=O)N[C@@H](Cc1ccc(O)cc1)C(=O)N[C@H](CCSC)C(N)=O) [peptide of SEQ ID NO 90]
3,> 10,MRYYYM (HELM PEPTIDE1{[ac].M.R.Y.Y.Y.[dM].[am]}$$$$V2.0; SMILES CSCC[C@H](NC(C)=O)C(=O)N[C@@H](CCCNC(=N)N)C(=O)N[C@@H](Cc1ccc(O)cc1)C(=O)N[C@@H](Cc1ccc(O)cc1)C(=O)N[C@@H](Cc1ccc(O)cc1)C(=O)N[C@H](CCSC)C(N)=O) [peptide of SEQ ID NO 126]
4,> 10,RMRYWYM (HELM PEPTIDE1{[CCCCCCCC(=O)[*:2]].R.M.R.Y.W.Y.[dM].[am]}$$$$V2.0; SMILES CCCCCCCC(=O)N[C@@H](CCCNC(=N)N)C(=O)N[C@@H](CCSC)C(=O)N[C@@H](CCCNC(=N)N)C(=O)N[C@@H](Cc1ccc(O)cc1)C(=O)N[C@@H](Cc1c[nH]c2ccccc12)C(=O)N[C@@H](Cc1ccc(O)cc1)C(=O)N[C@H](CCSC)C(N)=O) [peptide of SEQ ID NO 84]
5,> 10,MRYWYM (HELM PEPTIDE1{[CCCCCCCC(=O)[*:2]].M.R.Y.W.Y.[dM].[am]}$$$$V2.0; SMILES CCCCCCCC(=O)N[C@@H](CCSC)C(=O)N[C@@H](CCCNC(=N)N)C(=O)N[C@@H](Cc1ccc(O)cc1)C(=O)N[C@@H](Cc1c[nH]c2ccccc12)C(=O)N[C@@H](Cc1ccc(O)cc1)C(=O)N[C@H](CCSC)C(N)=O) [peptide of SEQ ID NO 88]
6,> 10,MKYWYM (HELM PEPTIDE1{[CCCC(=O)[*:2]].M.K.Y.W.Y.[dM].[am]}$$$$V2.0; SMILES CCCC(=O)N[C@@H](CCSC)C(=O)N[C@@H](CCCCN)C(=O)N[C@@H](Cc1ccc(O)cc1)C(=O)N[C@@H](Cc1c[nH]c2ccccc12)C(=O)N[C@@H](Cc1ccc(O)cc1)C(=O)N[C@H](CCSC)C(N)=O) [peptide of SEQ ID NO 91]
7,> 10,IKFWMM (HELM PEPTIDE1{I.K.F.W.M.[dM].[am]}$$$$V2.0; N-terminus assumed; SMILES CC[C@H](C)[C@H](N)C(=O)N[C@@H](CCCCN)C(=O)N[C@@H](Cc1ccccc1)C(=O)N[C@@H](Cc1c[nH]c2ccccc12)C(=O)N[C@@H](CCSC)C(=O)N[C@H](CCSC)C(N)=O) [peptide of SEQ ID NO 129]
